# Results taken from patent US20150274826A1 (ARCH ONCOLOGY, published 2015).
# Substitutions are numbered along the chain they refer to.
# T1: mouse CD47 (mouse, UniProt Q61735 19-303)
# T1 construct: whole, on cells; also called CD47 on mouse RBCs; CD47 on 4T1 cells
# T1 sequence (looked up): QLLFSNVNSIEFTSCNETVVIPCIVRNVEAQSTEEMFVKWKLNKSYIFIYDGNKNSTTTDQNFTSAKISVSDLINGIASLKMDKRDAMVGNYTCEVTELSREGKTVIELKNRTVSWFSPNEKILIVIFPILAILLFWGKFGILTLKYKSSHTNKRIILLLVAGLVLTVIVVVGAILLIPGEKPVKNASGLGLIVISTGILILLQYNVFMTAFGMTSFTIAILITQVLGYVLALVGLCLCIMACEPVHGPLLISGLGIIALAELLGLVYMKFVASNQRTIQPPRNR
# T2: dog CD47 (dog, UniProt A0A8I3PM61 19-310)
# T2 construct: also called CD47 on dog RBCs
# T2 sequence: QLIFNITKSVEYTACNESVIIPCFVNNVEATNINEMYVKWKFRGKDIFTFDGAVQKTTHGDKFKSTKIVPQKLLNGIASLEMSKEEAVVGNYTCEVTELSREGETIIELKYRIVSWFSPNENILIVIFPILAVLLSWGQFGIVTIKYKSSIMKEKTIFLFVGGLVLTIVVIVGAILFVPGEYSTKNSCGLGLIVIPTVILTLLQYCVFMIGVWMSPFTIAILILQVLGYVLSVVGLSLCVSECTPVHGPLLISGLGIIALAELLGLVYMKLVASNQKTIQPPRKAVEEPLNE
# T3: rat CD47 (rat, UniProt P97829 19-303)
# T3 construct: whole, on cells; also called CD47 on rat RBCs
# T3 sequence (looked up): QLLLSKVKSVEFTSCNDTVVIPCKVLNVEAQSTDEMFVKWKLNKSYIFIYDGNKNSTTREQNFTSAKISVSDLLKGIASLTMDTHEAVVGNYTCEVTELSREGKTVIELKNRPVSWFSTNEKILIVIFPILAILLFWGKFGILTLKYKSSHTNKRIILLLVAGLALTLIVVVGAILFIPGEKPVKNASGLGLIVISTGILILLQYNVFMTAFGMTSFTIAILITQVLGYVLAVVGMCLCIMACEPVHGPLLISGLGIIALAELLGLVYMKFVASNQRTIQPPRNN
# T4: pig CD47 (pig, UniProt Q9GKE8 19-303)
# T4 construct: whole, on cells; also called CD47 on porcine RBCs
# T4 sequence (looked up): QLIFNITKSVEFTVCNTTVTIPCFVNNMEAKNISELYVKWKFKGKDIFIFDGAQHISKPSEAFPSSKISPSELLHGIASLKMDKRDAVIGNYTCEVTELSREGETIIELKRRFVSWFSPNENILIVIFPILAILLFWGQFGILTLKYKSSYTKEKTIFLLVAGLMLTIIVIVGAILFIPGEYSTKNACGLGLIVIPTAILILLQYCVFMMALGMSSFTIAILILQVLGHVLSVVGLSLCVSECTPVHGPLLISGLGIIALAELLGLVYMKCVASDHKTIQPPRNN
# B1: Clone 15 (pVxK7b-037-hum15-LC / pVxK7b-037-hum15-HC) (antibody, human IgG1, kappa, V domains shown)
# VH: QVQLQESGPGLVKPSQTLSLTCTVSGYTFTNYYVFWVRQARGQRLEWIGDINPVNGDTNFNEKFKNRLTISKDTSKNQVVLTMTNMDPVDTATYYCARGGYTMDYWGQGTLVTVSS
# VL: AIQLTQSPSSLSASVGDRVTITCRSSQSLVHSNGNTYLHWYQQKPGQAPRLLIYKVSYRFSGVPSRFSGSGSGTEFTLTISSLQPDDFATYYCSQNTHVPRTFGQGTKVEIKR
# B2: Clone 22 (pVxK7b-037-hum22-LC / pVxK7b-037-hum22-HC) (antibody, human IgG1, kappa, V domains shown)
# VH: B1 VH
# VL: EIVLTQSPATLSVSPGERATLSCRSSQSLVHSNGNTYLHWYQQKPGQAPRLLIYKVSYRFSGVPSRFSGSGSGTDFTFTISSLEAEDAATYYCSQNTHVPRTFGQGTKVEIKR
# B3: Clone 6 (pVxK7b-037-hum06-LC / pVxK7b-037-hum06-HC) (antibody, human IgG1, kappa, V domains shown)
# VH: B1 VH
# VL: B1 VL with A1D, L4M, Q42L, A48S, R50Q, V63I, S65A, P85S, D86E, T90V
# B4: Clone 21 (pVxK7b-037-hum21-LC / pVxK7b-037-hum21-HC) (antibody, human IgG1, kappa, V domains shown)
# VH: B1 VH
# VL: AIQLTQSPSSLSASVGDRVTITCRSSQSLVHSNGNTYLHWYQQKPGQAPRLLIYKVSYRFSGVPDRFSGSGSGTDFTLKISRVEAEDVGVYYCSQNTHVPRTFGQGTKVEIKR
# B5: Clone 2 (pVxK7b-037-hum02-LC / pVxK7b-037-hum02-HC) (antibody, human IgG1, kappa, V domains shown)
# VH: QVQLQESGPGLVKPSQTLSLTCTVSGYTFTNYYVFWVRQARGQRLEWIGDINPVNGDTNFNEKFKNRVTISADKSISTAYLQWSSLKASDTAMYYCARGGYTMDYWGQGTLVTVSS
# VL: DVVMTQSPLSLPVTLGQPASISCRSSQSLVHSNGNTYLHWYQQKPGQAPRLLIYKVSYRFSGVPSRFSGSGSGTEFTLTISSLQPDDFATYYCSQNTHVPRTFGQGTKVEIKR
# B6: chimeric antibody VxP037-01LC-Pro/VxP037-01HC-Pro (antibody, human IgG1, kappa, V domains shown)
# VH: EVQLQQFGAELVKPGASMKLSCKASGYTFTNYYVFWVKQRPGQGLEWIGDINPVNGDTNFNEKFKNKATLTVDKSSTTTYLQLSSLTSEDSAVYYCTRGGYTMDYWGQGTLVTVSS
# VL: DVVMTQTPLSLSVSLGDQASISCRSSQSLVHSNGNTYLHWYLQKPGQSPKLLIYKVSYRFSGVPDRFSGSGSGTDFTLKISRVEAEDLGVYFCSQNTHVPRTFGQGTKVEIKR
# notes: also called Chimera; VxP037-01LC/VxP037-01HC
# B7: Clone 14 (pVxK7b-037-hum14-LC / pVxK7b-037-hum14-HC) (antibody, human IgG1, kappa)
# heavy: not shown
# light: DVVMTQSPLSLPVTLGQPASISCRSSQSLVHSNGNTYLHWYQQKPGKAPKLLIYKVSYRFSGVPDRFSGSGSGTDFTLKISRVEAEDVGVYYCSQNTHVPRTFGQGTKVEIKRTVAAPSVFIFPPSDEQLKSGTASVVCLLNNFYPREAKVQWKVDNALQSGNSQESVTEQDSKDSTYSLSSTLTLSKADYEKHKVYACEVTHQGLSSPVTKSFNRGEC
# B8: Clone 23 (pVxK7b-037-hum23-LC / pVxK7b-037-hum23-HC) (antibody, human IgG1, kappa)
# heavy: not shown
# light: B7 light with V2I, S7T, L15P, Q17E
# B9: Clone 19 (pVxK7b-037-hum19-LC / pVxK7b-037-hum19-HC) (antibody, human IgG1, kappa)
# heavy: not shown
# light: B7 light
# B10: Clone 20 (pVxK7b-037-hum20-LC / pVxK7b-037-hum20-HC) (antibody, human IgG1, kappa)
# heavy: not shown
# light: B7 light with V2I, S7T, L15P, Q17E, Q42L, K47Q, A48S, K50Q
# B11: Clone 10 (pVxK7b-037-hum10-LC / pVxK7b-037-hum10-HC) (antibody, human IgG1, kappa, V domains shown)
# VH: B1 VH
# VL: B6 VL with V2I, S12P, S14T, L15P, D17E, Q18P, K50Q, L88V, F92Y
# B12: Clone 3 (pVxK7b-037-hum03-LC / pVxK7b-037-hum03-HC) (antibody, human IgG1, kappa)
# heavy: not shown
# light: B7 light
# B13: Clone 9 (pVxK7b-037-hum09-LC / pVxK7b-037-hum09-HC) (antibody, human IgG1, kappa)
# heavy: not shown
# light: B7 light
# notes: also called Cl 9
# Molecular target: T1, mouse CD47
# Assay: flow cytometry on RBCs, CHO supernatant 10 ng/ml
# Experimental: (§1) RBCs are incubated for 60 minutes on ice with tissue culture supernatants containing the secreted humanized antibodies at a concentration of 10 ng/ml in a solution of phosphate buffered saline, pH 7.2, 2.5 mM EDTA (PBS+E), or with various concentrations of purified antibodies. Cells are then washed with cold PBS+E, and incubated for an additional hour on ice with FITC labeled donkey anti-human antibody (Jackson Immuno Research Labs, West Grove, Pa.; Catalogue #709-096-149) in PBS+E. Cells are then washed with PBS+E, and antibody binding is analyzed using a BD FACSAria Cell Sorter (Becton Dickinson) or a C6 Accuri Flow Cytometer (Becton Dickinson). Antibody binding is quantitated by comparison of mean fluorescence values relative to that of chimeric antibody >VxP037-01LC (SEQ ID NO:7))/>VxPO37-01HC (SEQ ID NO:57). The mean fluorescence value for each antibody is divided by the mean fluorescence value for the chimeric antibody.
row,mean fluorescence relative to chimeric antibody [ratio],Binder
1,1.3,B1
2,1.2,B2
3,1.2,B3
4,1.2,B4
5,1.2,B5
6,1,B6
7,1.5,B7
8,1.4,B8
9,1,B9
10,1.5,B10
11,1.2,B11
12,0.9,B12
13,1.4,B13

# Molecular target: T2, dog CD47
# Assay: flow cytometry on RBCs, CHO supernatant 10 ng/ml
# Experimental: as §1
row,mean fluorescence relative to chimeric antibody [ratio],Binder
1,1.1,B1
2,1,B2
3,1.1,B3
4,1.1,B4
5,1,B5
6,1,B6
7,1.3,B7
8,1.1,B8
9,1.2,B9
10,1.1,B10
11,1.1,B11
12,0.9,B12
13,1,B13

# Molecular target: T5, human CD47 (human, UniProt Q08722 19-323)
# T5 construct: whole, on cells; also called CD47 on human RBCs; CD47 on OV10 cells
# Assay: flow cytometry on RBCs, CHO supernatant 10 ng/ml
# Experimental: as §1
# T5 sequence (Q08722 19-323): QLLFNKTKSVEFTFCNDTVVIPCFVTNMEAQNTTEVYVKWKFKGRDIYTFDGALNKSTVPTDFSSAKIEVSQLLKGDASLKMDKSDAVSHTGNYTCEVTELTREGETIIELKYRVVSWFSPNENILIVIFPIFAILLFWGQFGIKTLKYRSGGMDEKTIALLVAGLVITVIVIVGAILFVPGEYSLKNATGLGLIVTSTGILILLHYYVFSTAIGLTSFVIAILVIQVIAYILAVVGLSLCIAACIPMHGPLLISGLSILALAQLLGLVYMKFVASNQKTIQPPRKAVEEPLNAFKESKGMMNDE
row,mean fluorescence relative to chimeric antibody [ratio],Binder
1,1,B1
2,1.1,B2
3,0.9,B3
4,1.2,B4
5,1,B5
6,1,B6
7,1.1,B7
8,1.2,B8
9,0.7,B9
10,1.3,B10
11,1.1,B11
12,0.7,B12
13,1.2,B13

# Molecular target: T3, rat CD47
# Assay: flow cytometry on RBCs, CHO supernatant 10 ng/ml
# Experimental: as §1
row,mean fluorescence relative to chimeric antibody [ratio],Binder
1,2.4,B1
2,2.8,B2
3,2.1,B3
4,2.8,B4
5,2.6,B5
6,1,B6
7,3.2,B7
8,3.3,B8
9,2.6,B9
10,1.9,B10
11,2.9,B11
12,1.7,B12
13,3.7,B13

# Molecular target: T4, pig CD47
# Assay: flow cytometry on RBCs, CHO supernatant 10 ng/ml
# Experimental: as §1
row,mean fluorescence relative to chimeric antibody [ratio],Binder
1,1.2,B1
2,1.4,B2
3,1.1,B3
4,1.4,B4
5,1.2,B5
6,1,B6
7,1.4,B7
8,1.7,B8
9,1.3,B9
10,1.7,B10
11,1.5,B11
12,0.9,B12
13,1.6,B13
